This is an account of results in the supplement of paper PMC10567573.

First the molecules themselves.
B1: SMOC2 (parent)
chain: QKPLCASDGRTFLSRCEFQRAKCK
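Also: lentivirally expressed fusions sorted by FACS into six bins by GFP to DsRed ratio, PSI derived from sequencing read proportions per bin multiplied by bin number.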

In the data set the parent is B1. The data set is described as follows: protein stability index of a GFP-peptide fusion (GPS, HEK-293T) (PSI 1-6); higher = more stable. Conditions: c terminus: a fixed tail appended.
As to QKPLCASDGRTFLSECEFQRAKCK [R15E], the protein stability index was determined as 4.14.

For the variant QKPLCASDGRTFLSTCEFQRAKCK [R15T], the protein stability index was found to be 4.28. Then QKPLCASDGRTFLSYCEFQRAKCK [R15Y], with 3.09; and QKPLCASDGRTFLSSCEFQRAKCK [R15S], with 3.41; and QKPLCASDGRTFLSFCEFQRAKCK [R15F], with 3.18.

For QKPLCASDGRTFLSDCEFQRAKCK [R15D], the protein stability index turned out to be 4.47. QKPLCASDGRTFLSWCEFQRAKCK [R15W]: the protein stability index was 3.32. For the variant QKPLCASDGRTFLSPCEFQRAKCK [R15P], the protein stability index was found to be 4.64. As for QKPLCASDGRTFLSACEFQRAKCK [R15A], the protein stability index was 3.65.

Consider QKPLCASDGRTFLSHCEFQRAKCK [R15H], for which the protein stability index was 3.79.

With QKPLCASDGRTFLSCCEFQRAKCK [R15C], the protein stability index was found to be 3.06.

Take QKPLCASDGRTFLSGCEFQRAKCK [R15G]: the protein stability index was found to be 3.93.

Take QKPLCASDGRTFLSKCEFQRAKCK [R15K]: the protein stability index came out at 4.2. Regarding QKPLCASDGRTFLSVCEFQRAKCK [R15V], the protein stability index turned out to be 3.71. In the case of QKPLCASDGRTFLSMCEFQRAKCK [R15M], the protein stability index is 2.92.

Turning to QKPLCASDGRTFLSLCEFQRAKCK [R15L], the protein stability index was found to be 3.65. Then QKPLCASDGRTFLSNCEFQRAKCK [R15N], with 3.09; and QKPLCASDGRTFLSQCEFQRAKCK [R15Q], with 3.45. For QKPLCASDGRTFLSICEFQRAKCK [R15I], the protein stability index was 3.77. With QKPLCASDGRTFLSRCEFQRAVCK [K22V], the protein stability index was 2.86. With QKPLCASDGRTFLSRCEFQRAHCK [K22H] the figure was 2.31; with QKPLCASDGRTFLSRCEFQRAWCK [K22W], 2.86; with QKPLCASDGRTFLSRCEFQRAMCK [K22M], 2.36.

Turning to QKPLCASDGRTFLSRCEFQRACCK [K22C], the protein stability index is 2.72. On to QKPLCASDGRTFLSRCEFQRADCK [K22D], for which the protein stability index is 2.9. As for QKPLCASDGRTFLSRCEFQRAECK [K22E], the protein stability index amounted to 2.76. On to QKPLCASDGRTFLSRCEFQRALCK [K22L], for which the protein stability index came out at 2.11. For the variant QKPLCASDGRTFLSRCEFQRAPCK [K22P], the protein stability index stood at 2.88. Regarding QKPLCASDGRTFLSRCEFQRAQCK [K22Q], the protein stability index stood at 3.

As to QKPLCASDGRTFLSRCEFQRASCK [K22S], the protein stability index came to 3.06. For QKPLCASDGRTFLSRCEFQRATCK [K22T], the protein stability index is 2.71. For the variant QKPLCASDGRTFLSRCEFQRAYCK [K22Y], the protein stability index was 2.46. Take QKPLCASDGRTFLSRCEFQRAGCK [K22G]: the protein stability index came out at 3.29. For the variant QKPLCASDGRTFLSRCEFQRAICK [K22I], the protein stability index was 2.27.

Take QKPLCASDGRTFLSRCEFQRAACK [K22A]: the protein stability index is 3.02.

As to QKPLCASDGRTFLSRCEFQRAFCK [K22F], the protein stability index turned out to be 2.65.

Consider QKPLCASDGRTFLSRCEFQRARCK [K22R], for which the protein stability index came to 2.95. Consider QKPLCASDGRTFLSRCEFQRANCK [K22N], for which the protein stability index was determined as 3.07. For QKPLCASDGRTFTSRCEFQRAKCK [L13T], the protein stability index came to 3.93.

Turning to QKPLCASDGRTFNSRCEFQRAKCK [L13N], the protein stability index amounted to 3.78. With QKPLCASDGRTFPSRCEFQRAKCK [L13P] the figure was 3.56; with QKPLCASDGRTFKSRCEFQRAKCK [L13K], 3.3. Regarding QKPLCASDGRTFISRCEFQRAKCK [L13I], the protein stability index was determined as 2.82. For the variant QKPLCASDGRTFWSRCEFQRAKCK [L13W], the protein stability index came out at 3.46. With QKPLCASDGRTFVSRCEFQRAKCK [L13V] the figure was 2.29; with QKPLCASDGRTFQSRCEFQRAKCK [L13Q], 3.4; with QKPLCASDGRTFYSRCEFQRAKCK [L13Y], 2.52. Turning to QKPLCASDGRTFSSRCEFQRAKCK [L13S], the protein stability index was 2.44.

QKPLCASDGRTFGSRCEFQRAKCK [L13G]: the protein stability index is 3.31. With QKPLCASDGRTFRSRCEFQRAKCK [L13R], the protein stability index is 3.15. On to QKPLCASDGRTFHSRCEFQRAKCK [L13H], for which the protein stability index was determined as 3.31. For QKPLCASDGRTFLSRCEFERAKCK [Q19E], the protein stability index came to 3.48. As to QKPLCASDGRTFLSRCEFIRAKCK [Q19I], the protein stability index came to 3. With QKPLCASDGRTFLSRCEFHRAKCK [Q19H], the protein stability index is 3.58. Then QKPLCASDGRTFLSRCEFGRAKCK [Q19G], with 3.15. Take QKPLCASDGRTFLSRCEFCRAKCK [Q19C]: the protein stability index came out at 3.48.

Consider QKPLCASDGRTFLSRCEFFRAKCK [Q19F], for which the protein stability index amounted to 2.53.

On to QKPLCASDGRTFLSRCEFNRAKCK [Q19N], for which the protein stability index is 3.34. Consider QKPLCASDGRTFLSRCEFDRAKCK [Q19D], for which the protein stability index was found to be 3.83.

With QKPLCASDGRTFLSRCEFTRAKCK [Q19T], the protein stability index is 3.36. Take QKPLCASDGRTFLSRCEFYRAKCK [Q19Y]: the protein stability index was found to be 3.13. QKPLCASDGRTFLSRCEFPRAKCK [Q19P]: the protein stability index worked out at 3.28.

Regarding QKPLCASDGRTFLSRCEFWRAKCK [Q19W], the protein stability index came to 1.55. As for QKPLCASDGRTFLSRCEFSRAKCK [Q19S], the protein stability index was found to be 4.18.

Take QKPLCASDGRTFLSRCEFLRAKCK [Q19L]: the protein stability index turned out to be 2.

In the case of QKPLCASDGRTFLSRCEFKRAKCK [Q19K], the protein stability index turned out to be 3.67. As for QKPLCASDGRTFLSRCEFMRAKCK [Q19M], the protein stability index came to 3.09. As for QKPLCASDGRTFLSRCEFARAKCK [Q19A], the protein stability index is 2.98. Turning to QKPLCASDGRTFLSRCEFVRAKCK [Q19V], the protein stability index worked out at 2.71. With QKPLCASDGRTFLIRCEFQRAKCK [S14I] the figure was 2.48. QKPLCASDGRTFLVRCEFQRAKCK [S14V]: the protein stability index came out at 3.22. With QKPLCASDGRTFLQRCEFQRAKCK [S14Q] the figure was 3.25; with QKPLCASDGRTFLFRCEFQRAKCK [S14F], 2.64; with QKPLCASDGRTFLNRCEFQRAKCK [S14N], 3.47. Regarding QKPLCASDGRTFLGRCEFQRAKCK [S14G], the protein stability index amounted to 3.44.

QKPLCASDGRTFLTRCEFQRAKCK [S14T]: the protein stability index was found to be 3.4. Then QKPLCASDGRTFLDRCEFQRAKCK [S14D], with 3.21. Turning to QKPLCASDGRTFLKRCEFQRAKCK [S14K], the protein stability index is 2.93. With QKPLCASDGRTFLHRCEFQRAKCK [S14H], the protein stability index is 3.73. QKPLCASDGRTFLERCEFQRAKCK [S14E]: the protein stability index was 3.08. Regarding QKPLCASDGRTFLCRCEFQRAKCK [S14C], the protein stability index was 2.82. With QKPLCASDGRTFLARCEFQRAKCK [S14A] the figure was 3.42; with QKPLCASDGRTFLWRCEFQRAKCK [S14W], 2.21. With QKPLCASDGRTFLPRCEFQRAKCK [S14P] the figure was 4.08.

For the variant QKPLCASDGRTFLMRCEFQRAKCK [S14M], the protein stability index was 3.66. Turning to QKPLCASDGRTFLLRCEFQRAKCK [S14L], the protein stability index was 3.76. With QKPLCASDGRTFLYRCEFQRAKCK [S14Y], the protein stability index came to 2.71. For QKPLCASDGRTFLSRCEPQRAKCK [F18P], the protein stability index came to 3.49.

As for QKPLCASDGRTFLSRCEVQRAKCK [F18V], the protein stability index was 4.01. Consider QKPLCASDGRTFLSRCECQRAKCK [F18C], for which the protein stability index stood at 3.56. For QKPLCASDGRTFLSRCEIQRAKCK [F18I], the protein stability index came to 4.24. With QKPLCASDGRTFLSRCEHQRAKCK [F18H] the figure was 4.32; with QKPLCASDGRTFLSRCEMQRAKCK [F18M], 3.67; with QKPLCASDGRTFLSRCEAQRAKCK [F18A], 3.93.
